Results taken from article PMC9294600.

molecular target: HA-tagged p62 (SQSTM1) (UniProt Q13501); assay: coimmunoprecipitation and immunoblot, quantified; details: 293T cells; 0.2 μM Baf A1 for 6 h; parent: est. 1.0; read off a plot

Substance | ratio to parent
Flag-tagged dengue virus (DENV) capsid protein K6R | 0.81
Flag-tagged dengue virus (DENV) capsid protein K17R | 1.1
Flag-tagged dengue virus (DENV) capsid protein K76R | 0.22
